In doi:10.1101/2023.07.11.548556, “Skeletal progenitor LRP1 deficiency causes severe and persistent skeletal defects with WNT/planar cell polarity dysregulation” (bioRxiv, 2023):

B1: Wnt5a (ligand, UniProt P41221 62-380, looked up)
chain: IIGAQPLCSQLAGLSQGQKKLCHLYQDHMQYIGEGAKTGIKECQYQFRHRRWNCSTVDNTSVFGRVMQIGSRETAFTYAVSAAGVVNAMSRACREGELSTCGCSRAARPKDLPRDWLWGGCGDNIDYGYRFAKEFVDARERERIHAKGSYESARILMNLHNNEAGRRTVYNLADVACKCHGVSGSCSLKTCWLQLADFRKVGDALKEKYDSAAAMRLNSRGKLVQVNSRFNSPTTQDLVYIDPSPDYCVRNESTGSLGTQGRLCNKTSEGMDGCELMCCGRGYDQFKTVQTERCHCKFHWCCYVKCKKCTEIVDQFVCK
notes: Wnt5a, purified protein; source: purified
B2: Wnt11 (ligand, UniProt O96014 25-354, looked up)
chain: IKWLALSKTPSALALNQTQHCKQLEGLVSAQVQLCRSNLELMHTVVHAAREVMKACRRAFADMRWNCSSIELAPNYLLDLERGTRESAFVYALSAAAISHAIARACTSGDLPGCSCGPVPGEPPGPGNRWGGCADNLSYGLLMGAKFSDAPMKVKKTGSQANKLMRLHNSEVGRQALRASLEMKCKCHGVSGSCSIRTCWKGLQELQDVAADLKTRYLSATKVVHRPMGTRKHLVPKDLDIRPVKDSELVYLQSSPDFCMKNEKVGSHGTQDRQCNKTSNGSDSCDLMCCGRGYNPYTDRVVERCHCKYHWCCYVTCRRCERTVERYVCK
notes: Wnt11, purified protein; source: purified
B3: Wnt3a (ligand, UniProt P56704 19-352, looked up)
chain: SYPIWWSLAVGPQYSSLGSQPILCASIPGLVPKQLRFCRNYVEIMPSVAEGIKIGIQECQHQFRGRRWNCTTVHDSLAIFGPVLDKATRESAFVHAIASAGVAFAVTRSCAEGTAAICGCSSRHQGSPGKGWKWGGCSEDIEFGGMVSREFADARENRPDARSAMNRHNNEAGRQAIASHMHLKCKCHGLSGSCEVKTCWWSQPDFRAIGDFLKDKYDSASEMVVEKHRESRGWVETLRPRYTYFKVPTERDLVYYEASPNFCEPNPETGSFGTRDRTCNVSSHGIDGCDLLCCGRGHNARAERRREKCRCVFHWCCYVSCQECTRVYDVHTCK
notes: Wnt3a, purified protein; source: purified

Target: T1, Low-density lipoprotein receptor-related protein 1 (LRP1), purified human full-length (human, UniProt Q07954 20-4544)
T1 construct: Low-density lipoprotein receptor-related protein 1 (LRP1), human, purified full-length protein coated on the plate; also called full-length LRP1; Full-length sLRP1; source: purified
Assay: ELISA; solid-phase binding assay; human full-length LRP1 (10 nM in 50 mM Tris-HCl pH 7.5, 150 mM NaCl, 10 mM CaCl2) coated on microtiter plates; 0-200 nM Wnt in 5% BSA blocking solution, 30 min at RT; bound Wnt detected with a specific anti-Wnt antibody; signal of uncoated wells subtracted; apparent constants (KD,app) extrapolated from a one-phase decay nonlinear fit
Conditions: both partners purified

T1 sequence (Q07954 20-4544): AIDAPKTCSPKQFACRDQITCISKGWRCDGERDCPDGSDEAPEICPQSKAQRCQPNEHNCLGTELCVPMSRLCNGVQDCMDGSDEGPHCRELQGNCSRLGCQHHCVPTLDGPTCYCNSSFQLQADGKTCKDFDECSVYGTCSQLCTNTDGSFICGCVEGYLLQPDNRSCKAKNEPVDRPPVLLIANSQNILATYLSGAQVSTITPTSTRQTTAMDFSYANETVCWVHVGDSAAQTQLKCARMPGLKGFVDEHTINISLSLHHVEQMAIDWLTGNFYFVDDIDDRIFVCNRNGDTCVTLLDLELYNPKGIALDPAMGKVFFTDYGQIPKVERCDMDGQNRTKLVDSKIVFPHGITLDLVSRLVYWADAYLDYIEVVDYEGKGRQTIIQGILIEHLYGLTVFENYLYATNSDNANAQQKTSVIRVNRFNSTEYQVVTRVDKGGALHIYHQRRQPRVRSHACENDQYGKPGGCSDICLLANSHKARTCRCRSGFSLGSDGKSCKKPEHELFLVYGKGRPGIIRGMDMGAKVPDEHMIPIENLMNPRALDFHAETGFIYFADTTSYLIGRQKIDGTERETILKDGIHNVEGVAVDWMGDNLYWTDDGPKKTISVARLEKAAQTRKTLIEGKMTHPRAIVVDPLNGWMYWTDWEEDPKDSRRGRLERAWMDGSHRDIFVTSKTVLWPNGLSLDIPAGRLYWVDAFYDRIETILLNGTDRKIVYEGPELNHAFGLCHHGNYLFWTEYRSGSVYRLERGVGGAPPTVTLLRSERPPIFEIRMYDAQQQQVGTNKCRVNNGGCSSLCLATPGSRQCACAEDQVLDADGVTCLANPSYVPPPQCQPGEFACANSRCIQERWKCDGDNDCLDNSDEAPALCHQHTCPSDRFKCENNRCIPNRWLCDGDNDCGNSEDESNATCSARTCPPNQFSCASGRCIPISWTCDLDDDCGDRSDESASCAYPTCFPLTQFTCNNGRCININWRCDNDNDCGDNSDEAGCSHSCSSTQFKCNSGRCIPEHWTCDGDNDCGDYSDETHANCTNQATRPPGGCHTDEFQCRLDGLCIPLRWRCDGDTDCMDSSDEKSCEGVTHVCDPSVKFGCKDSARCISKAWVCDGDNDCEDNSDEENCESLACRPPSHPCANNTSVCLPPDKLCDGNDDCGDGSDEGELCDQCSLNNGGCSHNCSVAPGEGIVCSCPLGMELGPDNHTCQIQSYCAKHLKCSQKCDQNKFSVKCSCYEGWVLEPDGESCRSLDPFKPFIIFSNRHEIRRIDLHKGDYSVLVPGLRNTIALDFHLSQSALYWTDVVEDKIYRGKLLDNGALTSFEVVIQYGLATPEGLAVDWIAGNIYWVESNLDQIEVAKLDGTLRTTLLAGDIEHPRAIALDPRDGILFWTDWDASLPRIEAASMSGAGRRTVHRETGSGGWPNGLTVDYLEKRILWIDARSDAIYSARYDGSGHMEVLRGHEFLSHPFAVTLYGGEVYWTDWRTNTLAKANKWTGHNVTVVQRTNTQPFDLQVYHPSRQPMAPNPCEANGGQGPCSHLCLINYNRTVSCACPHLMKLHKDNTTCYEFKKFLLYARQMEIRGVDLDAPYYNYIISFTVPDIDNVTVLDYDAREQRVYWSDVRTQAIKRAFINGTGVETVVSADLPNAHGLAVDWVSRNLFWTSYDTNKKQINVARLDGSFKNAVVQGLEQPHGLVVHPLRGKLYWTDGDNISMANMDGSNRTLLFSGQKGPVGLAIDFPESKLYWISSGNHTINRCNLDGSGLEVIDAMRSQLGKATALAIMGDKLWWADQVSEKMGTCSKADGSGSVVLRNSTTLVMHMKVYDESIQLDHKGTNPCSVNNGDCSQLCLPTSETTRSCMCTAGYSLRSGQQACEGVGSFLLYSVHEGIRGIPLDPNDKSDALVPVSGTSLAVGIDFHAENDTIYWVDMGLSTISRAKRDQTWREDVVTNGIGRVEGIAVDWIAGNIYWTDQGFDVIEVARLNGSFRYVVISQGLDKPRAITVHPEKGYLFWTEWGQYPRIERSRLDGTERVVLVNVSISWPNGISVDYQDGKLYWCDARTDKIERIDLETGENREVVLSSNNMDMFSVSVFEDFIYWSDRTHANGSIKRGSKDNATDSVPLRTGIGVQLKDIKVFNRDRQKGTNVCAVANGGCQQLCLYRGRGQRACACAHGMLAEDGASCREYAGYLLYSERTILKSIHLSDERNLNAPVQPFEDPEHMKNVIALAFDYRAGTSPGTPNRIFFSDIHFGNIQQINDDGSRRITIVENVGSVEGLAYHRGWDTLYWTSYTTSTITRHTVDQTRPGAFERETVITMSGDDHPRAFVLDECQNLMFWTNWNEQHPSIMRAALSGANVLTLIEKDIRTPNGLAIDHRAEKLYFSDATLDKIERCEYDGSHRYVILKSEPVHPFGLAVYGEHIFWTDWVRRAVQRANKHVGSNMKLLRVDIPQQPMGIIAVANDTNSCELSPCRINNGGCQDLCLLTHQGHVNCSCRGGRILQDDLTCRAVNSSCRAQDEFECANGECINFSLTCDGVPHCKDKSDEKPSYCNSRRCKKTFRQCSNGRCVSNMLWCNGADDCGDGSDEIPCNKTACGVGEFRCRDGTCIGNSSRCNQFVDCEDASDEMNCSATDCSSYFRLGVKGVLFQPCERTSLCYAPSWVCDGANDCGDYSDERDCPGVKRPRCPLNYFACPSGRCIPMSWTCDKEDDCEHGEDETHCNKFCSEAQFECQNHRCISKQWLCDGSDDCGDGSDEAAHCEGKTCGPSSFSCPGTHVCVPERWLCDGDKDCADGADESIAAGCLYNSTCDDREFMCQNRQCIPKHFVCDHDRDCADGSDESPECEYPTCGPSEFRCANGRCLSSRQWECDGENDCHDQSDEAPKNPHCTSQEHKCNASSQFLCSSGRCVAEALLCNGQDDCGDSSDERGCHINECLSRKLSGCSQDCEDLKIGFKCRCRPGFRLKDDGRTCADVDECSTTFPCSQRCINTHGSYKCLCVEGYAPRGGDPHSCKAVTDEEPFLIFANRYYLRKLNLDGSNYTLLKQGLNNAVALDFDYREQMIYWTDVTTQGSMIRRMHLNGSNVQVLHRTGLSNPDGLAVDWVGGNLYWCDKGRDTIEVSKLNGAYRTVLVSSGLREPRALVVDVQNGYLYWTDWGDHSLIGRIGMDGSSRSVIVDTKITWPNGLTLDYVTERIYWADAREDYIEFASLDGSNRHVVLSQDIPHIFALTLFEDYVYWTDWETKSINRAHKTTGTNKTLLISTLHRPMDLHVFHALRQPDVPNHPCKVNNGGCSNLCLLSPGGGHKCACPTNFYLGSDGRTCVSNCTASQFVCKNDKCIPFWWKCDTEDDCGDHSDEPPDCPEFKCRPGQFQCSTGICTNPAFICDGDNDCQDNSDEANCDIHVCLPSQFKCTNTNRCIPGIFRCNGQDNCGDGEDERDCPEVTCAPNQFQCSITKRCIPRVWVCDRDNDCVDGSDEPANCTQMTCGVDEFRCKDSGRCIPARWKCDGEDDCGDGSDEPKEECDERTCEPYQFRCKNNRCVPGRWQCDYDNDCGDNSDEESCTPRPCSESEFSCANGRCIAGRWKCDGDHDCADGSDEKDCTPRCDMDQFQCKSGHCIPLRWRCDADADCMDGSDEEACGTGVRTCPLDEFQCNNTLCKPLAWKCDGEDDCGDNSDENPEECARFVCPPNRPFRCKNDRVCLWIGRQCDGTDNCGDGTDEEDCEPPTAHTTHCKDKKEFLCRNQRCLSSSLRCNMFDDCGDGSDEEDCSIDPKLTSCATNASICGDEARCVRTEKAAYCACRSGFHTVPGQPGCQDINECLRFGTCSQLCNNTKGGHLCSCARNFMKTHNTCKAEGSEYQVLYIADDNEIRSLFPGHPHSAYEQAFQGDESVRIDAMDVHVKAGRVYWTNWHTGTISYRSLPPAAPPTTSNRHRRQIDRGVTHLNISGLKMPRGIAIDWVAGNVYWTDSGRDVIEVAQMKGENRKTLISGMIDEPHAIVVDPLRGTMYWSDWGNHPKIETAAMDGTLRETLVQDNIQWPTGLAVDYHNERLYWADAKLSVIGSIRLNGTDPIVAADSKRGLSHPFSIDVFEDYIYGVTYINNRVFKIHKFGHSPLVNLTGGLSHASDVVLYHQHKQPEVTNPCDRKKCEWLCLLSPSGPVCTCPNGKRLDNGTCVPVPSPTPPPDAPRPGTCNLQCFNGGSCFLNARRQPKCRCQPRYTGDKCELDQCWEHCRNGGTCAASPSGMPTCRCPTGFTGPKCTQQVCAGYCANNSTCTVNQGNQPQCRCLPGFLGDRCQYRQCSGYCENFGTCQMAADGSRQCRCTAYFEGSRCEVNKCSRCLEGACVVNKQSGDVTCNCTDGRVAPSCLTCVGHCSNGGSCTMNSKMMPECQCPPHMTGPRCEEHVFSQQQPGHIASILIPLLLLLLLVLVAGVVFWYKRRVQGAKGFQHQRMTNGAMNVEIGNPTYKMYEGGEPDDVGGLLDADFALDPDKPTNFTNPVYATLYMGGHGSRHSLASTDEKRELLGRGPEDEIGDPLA

Row | Binder | Kd [nM]
1 | B1 | 31
2 | B2 | 42
3 | B3 | > 200
